From article PMC12040988, “GET3B is involved in chloroplast biogenesis and interacts with the thylakoidal ALB3 and ALB4 insertases” (Plant Cell Reports, 2025)
One block for each binder: values may come before it.

Molecular target: T1, GST-tagged mature full-length GET3b (GST-Get3b) (Arabidopsis thaliana, UniProt A1L4Y1 68-411)
T1 construct: The results say 'GET3B C-terminally fused to GST'; The name GST-Get3b and the vector pGex-4T-3 fit GST at the N-terminus; also called AtGET3B; source: E. coli Rosetta2(DE3), purified (glutathione-sepharose); not shown: GST, N-terminal, kept
T1 sequence (looked up): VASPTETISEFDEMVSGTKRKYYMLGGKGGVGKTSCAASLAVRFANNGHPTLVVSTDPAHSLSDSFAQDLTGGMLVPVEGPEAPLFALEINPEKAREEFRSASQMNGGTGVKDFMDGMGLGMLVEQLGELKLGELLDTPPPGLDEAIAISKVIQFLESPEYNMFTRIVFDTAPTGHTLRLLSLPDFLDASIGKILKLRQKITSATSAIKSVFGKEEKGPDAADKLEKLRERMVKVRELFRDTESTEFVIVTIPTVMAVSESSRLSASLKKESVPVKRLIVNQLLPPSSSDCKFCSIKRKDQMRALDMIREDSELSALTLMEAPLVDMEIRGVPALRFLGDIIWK
Assay: pull-down; 50 μg GST-Get3b (or GST) with 20 μg Alb3C-His or Alb4C-His in 120 μl 1x PBS, 10 min at room temperature; held on glutathione resin 30 min, washed with 5 ml PBS, eluted with 10 mM reduced glutathione; immunoblot with antibodies against Alb3, Alb4 or GST
Settings: both partners purified

binding result: binds
B1: His-tagged C-terminal region of ALB4 (Alb4C-His) (domain or fragment, Arabidopsis thaliana, UniProt Q9FYL3 334-499, looked up)
chain: VWLQKYGGAKNPVEKFTNLVTKEDKTQQIEKSFSEPLVQKSVSELKIPREKGGEKVTPECPKPGERFRLLKEQEAKRRREKEERQKAEAALSNQNTDKAHEQDEKSDTAIVAEDDKKTELSAVDETSDGTVAVNGKPSIQKDETTNGTFGIGHDTEQQHSHETEKR
notes: ALB4 (STIC1) of Arabidopsis thaliana, stromal C-terminal region, aa 334-499; source: E. coli Rosetta2(DE3), purified (nickel-nitrilotriacetic acid); not shown: His tag, C-terminal, kept

binding result: binds
B2: His-tagged C-terminal region of ALB3 (Alb3C-His) (domain or fragment, Arabidopsis thaliana, UniProt Q8LBP4 350-462, looked up)
chain: VYLRKLGGAKPNMDENASKIISAGRAKRSIAQPDDAGERFRQLKEQEKRSKKNKAVAKDTVELVEESQSESEEGSDDEEEEAREGALASSTTSKPLPEVGQRRSKRSKRKRTV
notes: ALB3 of Arabidopsis thaliana, stromal C-terminal region, aa 350-462; also called Alb3-His; source: E. coli Rosetta2(DE3), purified (nickel-nitrilotriacetic acid); not shown: His tag, C-terminal, kept
